The values below come from PMC3117843.

Assay [1] deals with HCV envelope glycoproteins E1 and E2 on HCV genotype 3a virus from patients' serum (Hepatitis C virus genotype 3a).
Assay [2] deals with HCV envelope glycoproteins E1 and E2 of genotype 3a on HCV pseudoparticles (Hepatitis C virus genotype 3a).

B1: Galanthus nivalis agglutinin (natural protein)
chain: SCLSDNILYSGETLSTGEFLNYGSFVFIMQEDCNLVLYDVDKPIWATNTGGLSRSCFLSMQTDGNLVVYNPSNKPIWASNTGGQNGNYVCILQKDRNVVIYGTDRWATG
In assay [1], B1 returned an infection of Huh-7 cells by HCV 3a virus pre-incubated with GNA, HCV RNA by quantitative RT-PCR, EC50 (Figure 4) of 1 µg and an infection of Huh-7 cells by HCV 3a virus pre-incubated with GNA, HCV RNA by quantitative RT-PCR, EC90 (Figure 4) of 5 µg. This molecule also had an inhibition of HCVpp entry into Huh-7 cells, concentration of GNA for 50% reduction (Figure 3a and 3b) in assay [2] of 1 µg.
